This test concerns the target human Fn14 on cells (NFkB/HEK293 reporter cells, A375 cells) (human) (UniProt Q9NP84). The experiment in a line: cell-based or functional assay.

human Fn14 on cells (NFkB/HEK293 reporter cells, A375 cells) (human), sequence (Q9NP84 28-129): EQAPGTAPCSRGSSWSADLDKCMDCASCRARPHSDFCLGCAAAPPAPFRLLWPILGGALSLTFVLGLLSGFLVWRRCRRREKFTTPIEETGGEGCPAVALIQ

B1: mouse anti-human Fn14 antibody CRCBT-06-002 (antibody, from another filing, V domains shown)
VH: EVKLQQSGGGLVQPGGSMKLSCVASGFTFSYYWMNWVRQSPEQGLEWIAEIRLQSNDYPTHYAESVKGRFTISRDDSKNSVYLQMNNLRPEDTGIYYCACRYADYFDHWGQGTTLTVSS
VL: DTVLTQSPASLVVSLGQRATISCRASQSVSTSDYSYIHWYQQKPGQPPKFLIKYASNRDSGVPARFSGSGSGTDFTLNIHPVEEDDTAIYYCQHSWEIPPTFGAGTKLELQR
Take B1: the IC50 (ng/mL), inhibition of Tweak-induced NFkB activation (luciferase reporter, NFkB/HEK293 cells), geometric mean of three trials was found to be 115 ng/mL.

(Values after patent publication US20210388096A1.)
